# What was measured:
# [1] = molecular target: SARS-CoV-2 spike (S) protein (SARS-CoV-2) (UniProt P0DTC2)
# [2] = molecular target: SARS-CoV-2 spike (S) protein (SARS-CoV-2) (UniProt P0DTC2); remark: listed apart in the source
# [3] = molecular target: SARS-CoV-2 S protein (RBD) (SARS-CoV-2) (UniProt P0DTC2); test: ELISA; competitive inhibition ELISA: 1 μg/ml ACE2 coated in 0.01 M Tris pH 8.8; S (RBD) 1 μg/ml pre-incubated with HP-OVA or unmodified OVA at the indicated concentrations was added; antibody detection, absorbance at 450 nm
# [4] = molecular target: SARS-CoV-2 spike (S) protein (SARS-CoV-2) (UniProt P0DTC2); remark: listed apart in the source
substance,measurement,setting,value
3-hydroxyphthalic anhydride-modified chicken ovalbumin (from UniProt P01012 1-386),IC50 of inhibition of S-mediated cell-cell fusion of 293T/SARS-CoV-2/EGFP and Huh 7 cells; blocks S with ACE2,[1],1.54 µM
same,IC50 of inhibition of S-mediated cell-cell fusion of 293T/SARS-CoV-2/EGFP and Vero E6 cells; blocks S with ACE2,[1],1.74 µM
same,IC50 of inhibition of SARS-CoV-2 S pseudovirus entry into 293T/ACE2 cells (luciferase); blocks S with ACE2,[2],0.7 µM
same,IC50 of inhibition of SARS-CoV-2 S pseudovirus entry into Vero E6 cells (luciferase); blocks S with ACE2,[2],1.21 µM
same,IC50,[3],17.9 µM
same,IC50 against live SARS-CoV-2 in Vero E6 cells (CPE assay); blocks S with ACE2,[4],4.78 µM
same,IC90 against live SARS-CoV-2 in Vero E6 cells (CPE assay); blocks S with ACE2,[4],12.2 µM

# Reference: paper PMC7840605
